This note sets out measurements from patent publication US20260218135A1 (REGENTS OF THE UNIVERSITY OF COLORADO A BODY CORPORATE, published 2026).

Test [1] has as its target HA-PEG10 gag-pol (2x HA-tagged human PEG10, AA1-708) (Homo sapiens) (UniProt Q86TG7). Put plainly: cell-based or functional assay.
Test [2] concerns the target T1, FLAG-HsRTL8c-3'UTR (3x FLAG-tagged human RTL8c, AA1-113) (Homo sapiens, UniProt A6ZKI3 1-113).
T1 construct: range 1-113; Expressed in HEK293 cells from pcDNA3.1; also called FLAG-RTL8c; human FLAG-RTL8; not shown: 3x FLAG tag (N-terminal)
The test is described as follows: crosslinking co-immunoprecipitation, IP-FLAG, HEK293 lysate, western blot. The text has this:
HA-PEG10 was visible as four distinct bands representing gag-pol, gag, and two self-cleavage products generated via activity of the PEG10 protease domain^{16,36,37}. The 37 kDa band represents a retrovirus-like capsid fragment, and the 22 kDa band reflects a protein fragment consisting of the N-terminal ~100 amino acids of the protein (referred to as the ‘N-terminal fragment’, or ‘NTF’) 16. Upon immunoprecipitation of HA-PEG10, Applicants observed co-immunoprecipitation of FLAG-RTL8c (FIG. 3a).
Beads were first crosslinked to antibodies. Primary antibodies (5 μg) or isotype controls (5 μL) were incubated with 40 μL protein A (Invitrogen) or protein G (Pierce) bead slurry for 30 min to couple antibodies to beads. After coupling, beads were collected by centrifugation and the supernatant discarded. Unless otherwise stated, all incubations and washes were performed with end-over-end rotation at room temperature. All centrifugation to collect beads was performed 2,500×g for 2 min. Beads were washed twice (1 mL 0.2M sodium borate, pH 9 for 1 min), resuspended in 400 μL 20 mM dimethyl pimelimidate (DMP, Thermo) and incubated for 30 min to crosslink antibodies. After crosslinking, beads were washed twice (1 mL 0.2M ethanolamine (EMD Millipore) pH 8 for 5 min) and incubated in 1.4 mL 0.2M ethanolamine for two hr. Beads were then washed twice (1 mL PBS for 5 min). […]

The target in test [3] is T1, FLAG-HsRTL8c-3'UTR (3x FLAG-tagged …). The test is described as follows: co-immunoprecipitation with FLAG-RTL8c, western blot (FIG. S6b). A general note: A western blot detects proteins with antibodies after separation by electrophoresis.

T1 sequence (A6ZKI3 whole entry, the tested form may be a part): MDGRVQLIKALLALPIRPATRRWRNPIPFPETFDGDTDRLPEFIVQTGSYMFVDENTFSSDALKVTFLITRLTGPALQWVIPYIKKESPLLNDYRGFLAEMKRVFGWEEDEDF

With “HA-HsRTL8c-3'UTR (2x HA-tagged human RTL8c, AA1-113) (from UniProt A6ZKI3 1-113)”, in test [1], the abundance of HA-RTL8c relative to HA-PEG10 in the VLP fraction (western blot) is 5%.

B1: HA-capsid^CTD (human PEG10, AA161-259, 1x HA C-terminal) (other, Homo sapiens, UniProt Q86TG7 161-259, looked up)
chain: PQRREVAKRKIRRLRQGMGSVIDYSNAFQMIAQDLDWNEPALIDQYHEGLSDHIQEELSHLEVAKSLSALIGQCIHIERRLARAAAARKPRSPPRALVL
notes: range 161-259; not shown: 1x HA tag (C-terminal)
As for B1, the binding result in test [2] is given as “no binding”.

B2: N-terminal fragment of HA-PEG10 (22 kDa self-cleavage product, N-terminal ~100 amino acids) (other, Homo sapiens, UniProt Q86TG7 1-111, looked up)
chain: MTERRRDELSEEINNLREKVMKQSEENNNLQSQVQKLTEENTTLREQVEPTPEDEDDDIELRGAAAAAAPPPPIEEECPEDLPEKFDGNPDMLAPFMAQCQIFMEKSTRDF
notes: A band on the blot; The construct that mimics it (AA1-111) is m6; also called NTF; shorter proteolytically cleaved N-terminal fragment; not shown: 2x HA tag (N-terminal) of the parent HA-PEG10 construct
On to B2, for which, in test [2], the binding result is reported as “no binding”.

B3: HA-N-terminal fragment construct (2x HA-tagged human PEG10, AA1-111) (other, Homo sapiens, UniProt Q86TG7 1-111, looked up)
chain: B2 chain
notes: range 1-111; Truncation construct that mimics the natural self-cleavage of PEG10; also called HA-NTF; not shown: 2x HA tag (N-terminal)
With B3, the binding result in test [3] is recorded as “no binding”.
